From paper PMC5711931 come the findings set out here.

Assay [1] addresses F-actin of the thin filaments in ghost muscle fibres (rabbit psoas) (rabbit (endogenous in m. psoas fibres)) (UniProt P68135). In words: incorporation into ghost muscle fibres, washing, SDS-PAGE; ghost fibres with thin filaments reconstructed with Tpm and TN, decorated with S1; presence of AMPPNP (16 mM AMPPNP, 8 mM MgCl2).
The target is the same in assay [2]. Briefly: incorporation into ghost muscle fibres, washing, SDS-PAGE; ghost fibres with thin filaments reconstructed with Tpm and TN, decorated with S1; presence of ATP (5 mM ATP, 18 mM MgCl2, creatine phosphate and creatine kinase).
The target is the same in assay [3]. Briefly: incorporation into ghost muscle fibres, washing, SDS-PAGE; ghost fibres with thin filaments reconstructed with Tpm and TN, decorated with S1; absence of nucleotide.
Assay [4] has the same target. Briefly: incorporation into ghost muscle fibres, washing, SDS-PAGE; ghost fibres with thin filaments reconstructed with Tpm and TN, decorated with S1; presence of ADP (2.5 mM ADP, 3 mM MgCl2).
The target is the same in assay [5].
Assay [6] has the same target. Briefly: fluorescence intensity of the labelled protein in ghost muscle fibres (polarized fluorimeter); AF-Tpm-TN incorporated into the actin filaments of ghost fibres; Isum of the four polarized intensity components, n = 25; excitation 436 ± 5 nm, emission 500-600 nm.
Assay [7] shares this target. Briefly: incorporation into ghost muscle fibres, washing, SDS-PAGE with densitometry; single rabbit psoas ghost fibres incubated with Tpm and TN in 50 mM KCl, 3 mM MgCl2, 1 mM DTT, 6.7 mM K, Na phosphate buffer, pH 7.0; unbound Tpm and TN washed out for 15 min; 8-10 fibres per gel lane, 12% SDS-PAGE, ImageJ.

myosin subfragment-1 from rabbit fast skeletal muscle myosin (domain or fragment), sequence (Q28641 whole entry, the tested form may be a part): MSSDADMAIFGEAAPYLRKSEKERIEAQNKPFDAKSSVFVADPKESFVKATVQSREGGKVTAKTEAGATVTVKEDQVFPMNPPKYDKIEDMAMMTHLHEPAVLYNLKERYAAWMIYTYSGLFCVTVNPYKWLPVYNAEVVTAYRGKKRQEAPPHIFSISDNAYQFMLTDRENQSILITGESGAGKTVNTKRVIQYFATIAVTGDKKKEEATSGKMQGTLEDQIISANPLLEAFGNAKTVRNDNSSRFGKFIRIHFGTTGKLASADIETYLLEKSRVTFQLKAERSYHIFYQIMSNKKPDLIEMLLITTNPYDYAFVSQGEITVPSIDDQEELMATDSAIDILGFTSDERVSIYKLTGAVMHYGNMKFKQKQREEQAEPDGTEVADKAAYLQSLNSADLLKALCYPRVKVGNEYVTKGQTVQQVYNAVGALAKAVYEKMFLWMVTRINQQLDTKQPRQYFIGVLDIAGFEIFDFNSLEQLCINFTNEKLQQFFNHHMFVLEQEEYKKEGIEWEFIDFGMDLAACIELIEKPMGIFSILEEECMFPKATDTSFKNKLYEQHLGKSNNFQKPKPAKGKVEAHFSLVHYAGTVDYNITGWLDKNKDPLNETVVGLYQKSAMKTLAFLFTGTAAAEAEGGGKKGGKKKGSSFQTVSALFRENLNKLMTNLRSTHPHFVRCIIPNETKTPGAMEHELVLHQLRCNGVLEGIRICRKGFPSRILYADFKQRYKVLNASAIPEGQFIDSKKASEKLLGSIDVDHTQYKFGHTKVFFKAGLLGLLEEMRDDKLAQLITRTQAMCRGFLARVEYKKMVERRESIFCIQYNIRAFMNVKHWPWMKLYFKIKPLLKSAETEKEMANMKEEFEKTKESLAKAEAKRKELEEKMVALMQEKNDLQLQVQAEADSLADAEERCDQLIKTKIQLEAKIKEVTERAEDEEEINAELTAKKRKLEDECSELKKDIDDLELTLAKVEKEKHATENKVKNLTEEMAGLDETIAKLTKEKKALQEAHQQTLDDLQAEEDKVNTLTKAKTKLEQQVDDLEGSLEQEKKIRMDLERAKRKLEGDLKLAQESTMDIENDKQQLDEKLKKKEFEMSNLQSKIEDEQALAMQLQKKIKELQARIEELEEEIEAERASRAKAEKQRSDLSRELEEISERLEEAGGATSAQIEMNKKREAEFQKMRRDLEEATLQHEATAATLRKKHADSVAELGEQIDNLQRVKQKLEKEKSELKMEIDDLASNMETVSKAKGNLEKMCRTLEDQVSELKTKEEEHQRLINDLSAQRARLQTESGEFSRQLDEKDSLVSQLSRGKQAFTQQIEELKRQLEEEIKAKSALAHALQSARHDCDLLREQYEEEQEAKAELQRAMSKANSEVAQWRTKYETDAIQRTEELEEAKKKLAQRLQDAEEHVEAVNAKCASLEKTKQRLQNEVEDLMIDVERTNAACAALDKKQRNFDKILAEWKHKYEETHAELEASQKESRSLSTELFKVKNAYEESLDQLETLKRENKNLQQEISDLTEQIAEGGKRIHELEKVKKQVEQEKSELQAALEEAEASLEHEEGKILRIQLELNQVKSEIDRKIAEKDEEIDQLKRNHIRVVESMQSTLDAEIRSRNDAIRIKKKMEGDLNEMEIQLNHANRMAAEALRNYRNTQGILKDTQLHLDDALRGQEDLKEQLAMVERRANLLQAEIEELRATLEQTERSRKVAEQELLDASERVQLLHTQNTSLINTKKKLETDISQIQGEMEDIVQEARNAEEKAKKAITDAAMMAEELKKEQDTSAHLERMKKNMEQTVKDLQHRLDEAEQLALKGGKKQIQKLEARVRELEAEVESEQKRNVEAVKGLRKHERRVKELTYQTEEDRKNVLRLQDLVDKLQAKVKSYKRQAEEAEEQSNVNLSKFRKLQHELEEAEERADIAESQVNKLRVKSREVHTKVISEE

With “myosin subfragment-1 from rabbit fast skeletal muscle myosin (domain or fragment)”, the molar ratio of S1 to actin (1:x, value is x) (mol actin per mol S1) in assay [1] is 8; in assay [2], 14; in assay [3], 5; in assay [4], 5. The substance also displayed a ΦE of the polarized fluorescence of AEDANS-S1 in ghost fibres containing ΔE139Tpm against fibres containing WTTpm; TN, high Ca2+, no nucleotide in assay [5] of 0.4 °.
With “recombinant tropomyosin Tpm2.2 with the E139 deletion labelled with 5-IAF (natural protein)”, the fluorescence intensity Isum of the bound labelled Tpm in assay [6] came out at 266.
Substance “recombinant tropomyosin Tpm2.2 with the E139 deletion, ββ-homodimer (natural protein)” gave an amount bound, percent of the amount of WTTpm in assay [7] of 85%.
Substance “recombinant wild-type tropomyosin Tpm2.2 labelled with 5-IAF (natural protein)” had a fluorescence intensity Isum of the bound labelled Tpm in assay [6] of 236.
